Assay results taken from patent publication US20150030560A1.

Experiments:
[1] = target: Detergent-soluble HLA-DR1 purified from LG-2 cells (DRB1*0101) (human)
[2] = target: Detergent-soluble HLA-DR4 purified from Priess cells (DRB1*0401) (human)
[3] = target: Detergent-soluble HLA-DR2 purified from MGAR cells (DRB1*1501) (human)

| Kd [1] | Substance | IC50 [1] | IC50 [2] | Kd [2] | IC50 [3] | Kd [3] |
| --- | --- | --- | --- | --- | --- | --- |
| 0.074 µM | Copolymer 1 (peptide) | 8.8 µM | 10.8 µM | 0.015 µM | 10.1 µM | 0.082 µM |
|  | GAL terpolymer (SD-1689), poly[L-Glu 0.153, L-Ala 0.479, L-Lys 0.365] (peptide) | < 1000 µM | < 1000 µM | 0.003 µM | < 1000 µM | 0.017 µM |
| 0.004 µM | GTL terpolymer (SD-1697), poly[L-Tyr 0.162, L-Glu 0.259, L-Lys 0.579] (peptide) | 43 µM | 43 µM | 0.008 µM | 25.4 µM |  |
|  | TAL terpolymer (SD-1691), poly[L-Tyr 0.102, L-Ala 0.542, L-Lys 0.353] (peptide) | 3.3 µM |  |  | 2.7 µM | 0.017 µM |

| Substance | Kd [1] | IC50 [1] | IC50 [2] | Kd [2] | IC50 [3] | Kd [3] |
| --- | --- | --- | --- | --- | --- | --- |
| TGA terpolymer (SD-1690), poly[L-Tyr 0.136, L-Glu 0.21, L-Ala 0.648] (peptide) | 0.01 µM | 1.3 µM | 1 µM | 0.008 µM | 9.5 µM | 0.008 µM |
